Data taken from the supplement of paper PMC10567573.

B1: PTPLAD1 (parent)
chain: YSFYMLTCIDMDWKVLTWLRYTLW
B2: TPRG1 (parent)
chain: ETIQGFWLLTKIDHWNNEKERILL

Variants of: B1
Assay: protein stability index of a GFP-peptide fusion (GPS, HEK-293T) (PSI 1-6); higher = more stable
Settings: c terminus: a fixed tail appended
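Also: lentivirally expressed fusions sorted by FACS into six bins by GFP to DsRed ratio, PSI derived from sequencing read proportions per bin multiplied by bin number.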

Variant | protein stability index
L19I | 2.06
L19R | 2.4
L19A | 2.9
L19N | 3.55
L19E | 2.83
L19P | 3.35
L19F | 3.32
L19M | 1.93
L19H | 2.65
L19S | 1.22
L19D | 4.18
L19Q | 3.25
L19Y | 2.91
L19K | 2.22
L19W | 2.31
W18T | 3.35
W18H | 4.4
W18I | 3.65
W18K | 3.24
W18A | 2.61
W18M | 1.84
W18F | 3.34
W18D | 1.68

Variant | protein stability index
W18V | 2.83
W18Q | 2.11
W24F | 2.24
W24G | 2.39
W24N | 2.55
W24P | 2.58
W24R | 2.04
W24Y | 2.72
W24M | 3.14
W24D | 4.01
W24H | 3.02
W24A | 2.83
W24E | 2.77
W24K | 1.37
W24I | 3.4
W24C | 2.42
L23F | 2.46
L23R | 4.16
L23S | 2.99
L23I | 2.88
L23W | 2.4
L23H | 2.58
L23Q | 3.84

Variant | protein stability index
L23T | 4.8
L23E | 2.74
L23A | 3.26
L23P | 4.2
L23D | 2.6
L23C | 4.3
T22Y | 2.26
T22F | 2.08
T22Q | 2.2
T22N | 2.27
T22R | 2.25
T22C | 2.07
T22M | 2.12
T22H | 2.85
T22A | 2.78
T22V | 1.99
Y21G | 3.32
Y21L | 3.2
Y21I | 2.98
Y21V | 2.28
Y21F | 2.66
Y21N | 4.05
Y21E | 3.44

Variant | protein stability index
Y21R | 2.05
Y21W | 1.84
Y21S | 3.16
Y21C | 4.75
Y21Q | 2.17
T17Y | 1.8
T17W | 2.66
R20A | 2.88
R20T | 3.6
R20H | 4.19
R20F | 1.28
R20L | 1.23
R20G | 3
R20I | 1.69
R20Y | 2.42
R20K | 3.46
R20M | 2.04
R20W | 1.06
R20P | 3.84
R20N | 4.06
R20V | 2.13
R20C | 1.52

Variants of: B2
Assay: as above
Settings: c terminus: a fixed tail appended

Variant | protein stability index
N16E | 1.92
N16G | 1.75
N16P | 2.99
N16A | 2.06
N16F | 2.65
N16M | 1.63
N16T | 3.58
N16Q | 1.77
N16I | 3.07
E1H | 2.48
E1L | 4.7
E1S | 2.85
E1D | 2.8
E1A | 2.75
E1V | 4.74
E1T | 1.82
E1I | 3.09
E1N | 2.13
E1Q | 3.37
E20K | 2.67
E20M | 3.33
E20L | 3.61
E20N | 2.53
E20P | 2.37
E20Q | 2.27

Variant | protein stability index
E20A | 3.4
E20D | 3.18
I3N | 1.71
I3S | 1.28
I3L | 1.53
I3R | 1.88
I3E | 2.04
I3D | 1.39
I3T | 2.18
I3P | 2.05
I3G | 2.14
I3Y | 2.55
I3V | 3.9
T10A | 3.73
T10Y | 2.44
T10N | 1.34
T10R | 1.01
T10F | 1.96
T10W | 2.45
T10I | 3.71
T10E | 2.91
T10H | 2.31
T10P | 1.65
T10G | 2.35
T10S | 2.49

Variant | protein stability index
I12N | 2.83
I12C | 2.08
I12E | 2.55
I12K | 2.07
I12A | 3.59
I12H | 1.9
I12R | 1.75
I12T | 1.58
I12G | 1.13
I12S | 2.09
I12M | 3.11
L8W | 1.43
L8D | 2.34
L8K | 3.05
L8Y | 4.07
L8Q | 1.53
L8T | 2.54
L8P | 1.43
L8V | 2.27
L8G | 1.61
L8S | 1.56
L8H | 2.04
L8E | 2.42
L8A | 2.08
L8N | 1.99

Variant | protein stability index
H14F | 2.41
H14D | 2.88
H14E | 2.51
H14S | 2.41
H14M | 2.37
H14V | 3.16
H14R | 4.13
H14L | 2.25
H14C | 1.39
H14G | 1.34
W15V | 2.49
W15H | 2.16
W15C | 1.56
W15Q | 2.09
W15I | 1.74
W15P | 2.2
W15K | 2.04
T2D | 1.91
T2P | 1.61
T2Q | 2.82
T2E | 2.51
T2C | 1.55
T2L | 1.67
T2R | 3.03
T2N | 2.16

Variant | protein stability index
T2Y | 3.19
T2H | 1.67
R21E | 3.83
R21C | 3.09
R21T | 2.79
R21I | 2.51
R21K | 1.66
R21L | 2.75
R21P | 2.58
R21G | 2.98
R21D | 1.3
R21Q | 3.52
K19G | 1.76
K19Y | 2.27
K19A | 2.21
K19T | 1.78
K19W | 2.92
K19E | 1.69
K19N | 4.67
K19C | 2.12
K19I | 2.47
K19P | 2.82
L23M | 3.45
L23I | 3.88
L23W | 3.52

Variant | protein stability index
L23R | 1.77
L23K | 1.23
L23Q | 1.78
L23V | 3.52
L23E | 2.38
L23P | 1.95
L23Y | 4.45
N17I | 2.46
N17T | 2.14
N17S | 2.2
N17F | 2.36
N17A | 2.33
N17K | 3.22
N17C | 2.54
N17Q | 4.24
N17M | 3.42
G5Q | 1.98
G5W | 3.06
G5L | 1.38
G5S | 2
G5H | 2.36
G5K | 2.04
G5Y | 2.95
I22E | 2.16
I22H | 2.02

Variant | protein stability index
I22R | 1.48
I22P | 1.61
I22M | 3.17
I22V | 3.42
I22A | 2.62
I22Q | 3.38
I22Y | 1.63
I22D | 1.01
I22N | 2.6
F6Y | 2.51
F6E | 2.25
F6C | 3.16
F6Q | 1.91
F6V | 2.36
F6K | 1.3
F6T | 2.69
F6D | 1.72
F6N | 2.11
F6P | 1.74
F6M | 1.48
F6H | 1.94
F6R | 1.91
L9M | 2.1
L9H | 1.87
L9S | 2.88

Variant | protein stability index
L9C | 2.35
L9F | 3.19
L9N | 1.16
L9R | 1.49
L9T | 1.33
L9Q | 1.65
L9D | 1.58
L9K | 1.54
L9P | 2.7
L9E | 2.2
L9G | 2.15
D13N | 3.41
D13M | 1.04
D13V | 2.29
D13F | 2.23
D13A | 3.1
D13Q | 3.45
D13T | 1.69
D13W | 2.98
D13P | 2.19
Q4Y | 2.77
Q4N | 1.82
Q4K | 2.89
Q4M | 3.23
Q4P | 3.54

Variant | protein stability index
Q4T | 1.88
K11W | 2.02
K11F | 3.4
K11G | 2.08
K11A | 1.85
K11S | 1.71
K11L | 1.49
K11H | 1.76
K11R | 1.54
E18C | 2.45
E18I | 1.56
E18L | 3.57
E18H | 2.3
E18V | 3.83
E18S | 3.54
E18A | 2.8
E18W | 2.03
E18K | 1.71
E18N | 2.14
E18M | 2.79
L24C | 2.36
L24G | 4.41
L24V | 2.5
L24Q | 3.61
L24N | 3.07

Variant | protein stability index
L24M | 2.21
L24P | 2.8
L24W | 2.52
L24H | 4.13
L24K | 2.24
W7L | 2.08
W7D | 2.25
W7A | 1.91
W7S | 2.1
W7K | 1.86
W7H | 1.04
W7R | 2.23
W7V | 3.28
W7Q | 1.83
W7N | 2.18
W7M | 3.58
W7E | 1.93
W7C | 3.25
